Laboratory results taken from US20180155451A1 (published 2018).

T1: FcγRIIb extracellular domain with C-terminal His tag (human, UniProt P31994 43-217)
T1 construct: extracellular domain; also called FcgRIIb; 2b; not shown: His tag at the C terminus
T1 sequence (looked up): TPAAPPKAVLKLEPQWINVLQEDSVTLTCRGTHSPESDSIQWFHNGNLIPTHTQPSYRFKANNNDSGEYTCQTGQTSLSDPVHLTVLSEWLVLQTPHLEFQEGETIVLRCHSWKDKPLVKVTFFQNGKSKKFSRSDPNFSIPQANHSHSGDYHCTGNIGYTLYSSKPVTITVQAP


Legend:
[1] = target: T2, FcγRIIIa extracellular domain with C-terminal His tag (human, UniProt P08637 17-208); assay: SPR (Biacore); ratio of He/Con_3a (FcγRIIIa) to He/Con_2b (FcγRIIb)
T2 construct: extracellular domain; also called FcgRIIIa; 3a; not shown: His tag at the C terminus
Description: (§1) The heterodimerized antibodies He Abs in which one of the H chains was introduced with an alteration were assayed for their binding activities to each activating FcγR and inhibitory FcγR according to the method described in Example 4. […] The activating FcγRs in FIGS. 26, 27, 28, and 29 are FcγRIa, FcγRIIa (R), FcγRIIa (H), and FcγRIIIa, respectively.
(§2) Analysis of interaction between objective antibody and the FcγR was carried out using Biacore T100 (GE Healthcare). HBS-EP+ (GE Healthcare) was used as the running buffer, and the measurement temperature was set to 25° C. Chips produced by immobilizing the antigen peptide by the amine coupling method to a Series S Sencor Chip CM5 (GE Healthcare), or alternatively, chips produced by allowing preliminarily biotinylated antigen peptides to interact with and immobilize onto a Series S Sensor Chip SA (certified) (GE Healthcare) were used. Antibodies of interest were captured onto an antigen peptide-immobilized chip, and allowed to interact to each FcγR diluted with running buffer. To regenerate and repeatedly use the chip, the antibodies captured on the chip were washed off by reacting 10 mM glycine-HCl, pH 1.5.

[2] = target: T1, FcγRIIb extracellular domain with …; assay: SPR (Biacore), antibody captured, FcγR as analyte; He Ab binding / GpH7-A5/GpH7-B3/GpL16-k0 binding x 100
Description: as §1, §2

[3] = target: T2, FcγRIIIa extracellular domain with …; assay: as above
Description: as §1, §2

T2 sequence (P08637 17-208): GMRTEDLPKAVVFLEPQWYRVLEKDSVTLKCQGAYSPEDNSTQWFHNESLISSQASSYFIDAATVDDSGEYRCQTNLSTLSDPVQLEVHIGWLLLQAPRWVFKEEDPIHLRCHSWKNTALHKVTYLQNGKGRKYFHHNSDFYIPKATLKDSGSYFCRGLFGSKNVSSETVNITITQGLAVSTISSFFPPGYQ

| Binder | He_3a/2b (IIIa/IIb) [1] | He/Con_2b (IIb binding) [2] | He/Con_3a (IIIa binding) [3] |
| --- | --- | --- | --- |
| GpH7-A5/GpH7-B3 variant S298_09D/GpL16-k0 (antibody, human IgG1, kappa, position is EU numbering; also called He Ab) heavy 1: not shown heavy 2: not shown light: DIVMTQSPLSLPVTPGEPASISCQASESLVHSNRNTYLHWYLQKPGQSPQLLIYKVSNRFSGVPDRFSGSGSGTDFTLKISRVEAEDVGVYYCSQNTHVPPTFGQGTKVEIERTVAAPSVFIFPPSDEQLKSGTASVVCLLNNFYPREAKVQWKVDNALQSGNSQESVTEQDSKDSTYSLSSTLTLSKADYEKHKVYACEVTHQGLSSPVTKSFNRGEC | 1.38 ratio | 48.3 relative, control = 100 | 66.7 relative, control = 100 |
| GpH7-A5/GpH7-B3 variant S324_19Q/GpL16-k0 (antibody, human IgG1, kappa, position is EU numbering; also called He Ab) heavy 1: not shown heavy 2: not shown light: DIVMTQSPLSLPVTPGEPASISCQASESLVHSNRNTYLHWYLQKPGQSPQLLIYKVSNRFSGVPDRFSGSGSGTDFTLKISRVEAEDVGVYYCSQNTHVPPTFGQGTKVEIERTVAAPSVFIFPPSDEQLKSGTASVVCLLNNFYPREAKVQWKVDNALQSGNSQESVTEQDSKDSTYSLSSTLTLSKADYEKHKVYACEVTHQGLSSPVTKSFNRGEC | 1.33 ratio | 66.8 relative, control = 100 | 88.5 relative, control = 100 |
| GpH7-A5/GpH7-B3 variant S324_01G/GpL16-k0 (antibody, human IgG1, kappa, position is EU numbering; also called He Ab) heavy 1: not shown heavy 2: not shown light: DIVMTQSPLSLPVTPGEPASISCQASESLVHSNRNTYLHWYLQKPGQSPQLLIYKVSNRFSGVPDRFSGSGSGTDFTLKISRVEAEDVGVYYCSQNTHVPPTFGQGTKVEIERTVAAPSVFIFPPSDEQLKSGTASVVCLLNNFYPREAKVQWKVDNALQSGNSQESVTEQDSKDSTYSLSSTLTLSKADYEKHKVYACEVTHQGLSSPVTKSFNRGEC | 1.29 ratio | 81.1 relative, control = 100 | 105 relative, control = 100 |
| GpH7-A5/GpH7-B3 variant S298_14T/GpL16-k0 (antibody, human IgG1, kappa, position is EU numbering; also called He Ab) heavy 1: not shown heavy 2: not shown light: DIVMTQSPLSLPVTPGEPASISCQASESLVHSNRNTYLHWYLQKPGQSPQLLIYKVSNRFSGVPDRFSGSGSGTDFTLKISRVEAEDVGVYYCSQNTHVPPTFGQGTKVEIERTVAAPSVFIFPPSDEQLKSGTASVVCLLNNFYPREAKVQWKVDNALQSGNSQESVTEQDSKDSTYSLSSTLTLSKADYEKHKVYACEVTHQGLSSPVTKSFNRGEC | 1.45 ratio | 77.9 relative, control = 100 | 113 relative, control = 100 |
| GpH7-A5/GpH7-B3 variant Y300_07I/GpL16-k0 (antibody, human IgG1, kappa, position is EU numbering; also called He Ab) heavy 1: not shown heavy 2: not shown light: DIVMTQSPLSLPVTPGEPASISCQASESLVHSNRNTYLHWYLQKPGQSPQLLIYKVSNRFSGVPDRFSGSGSGTDFTLKISRVEAEDVGVYYCSQNTHVPPTFGQGTKVEIERTVAAPSVFIFPPSDEQLKSGTASVVCLLNNFYPREAKVQWKVDNALQSGNSQESVTEQDSKDSTYSLSSTLTLSKADYEKHKVYACEVTHQGLSSPVTKSFNRGEC | 1.28 ratio | 74.5 relative, control = 100 | 95.1 relative, control = 100 |
| GpH7-A5/GpH7-B3 variant S324_02A/GpL16-k0 (antibody, human IgG1, kappa, position is EU numbering; also called He Ab) heavy 1: not shown heavy 2: not shown light: DIVMTQSPLSLPVTPGEPASISCQASESLVHSNRNTYLHWYLQKPGQSPQLLIYKVSNRFSGVPDRFSGSGSGTDFTLKISRVEAEDVGVYYCSQNTHVPPTFGQGTKVEIERTVAAPSVFIFPPSDEQLKSGTASVVCLLNNFYPREAKVQWKVDNALQSGNSQESVTEQDSKDSTYSLSSTLTLSKADYEKHKVYACEVTHQGLSSPVTKSFNRGEC | 1.33 ratio | 78.3 relative, control = 100 | 104 relative, control = 100 |
| GpH7-A5/GpH7-B3 variant S298_16H/GpL16-k0 (antibody, human IgG1, kappa, position is EU numbering; also called He Ab) heavy 1: not shown heavy 2: not shown light: DIVMTQSPLSLPVTPGEPASISCQASESLVHSNRNTYLHWYLQKPGQSPQLLIYKVSNRFSGVPDRFSGSGSGTDFTLKISRVEAEDVGVYYCSQNTHVPPTFGQGTKVEIERTVAAPSVFIFPPSDEQLKSGTASVVCLLNNFYPREAKVQWKVDNALQSGNSQESVTEQDSKDSTYSLSSTLTLSKADYEKHKVYACEVTHQGLSSPVTKSFNRGEC | 1.2 ratio | 63.5 relative, control = 100 | 76.5 relative, control = 100 |
| GpH7-A5/GpH7-B3 variant S324_10E/GpL16-k0 (antibody, human IgG1, kappa, position is EU numbering; also called He Ab) heavy 1: not shown heavy 2: not shown light: DIVMTQSPLSLPVTPGEPASISCQASESLVHSNRNTYLHWYLQKPGQSPQLLIYKVSNRFSGVPDRFSGSGSGTDFTLKISRVEAEDVGVYYCSQNTHVPPTFGQGTKVEIERTVAAPSVFIFPPSDEQLKSGTASVVCLLNNFYPREAKVQWKVDNALQSGNSQESVTEQDSKDSTYSLSSTLTLSKADYEKHKVYACEVTHQGLSSPVTKSFNRGEC | 1.28 ratio | 77.4 relative, control = 100 | 99.3 relative, control = 100 |
| GpH7-A5/GpH7-B3 variant Y300_13S/GpL16-k0 (antibody, human IgG1, kappa, position is EU numbering; also called He Ab) heavy 1: not shown heavy 2: not shown light: DIVMTQSPLSLPVTPGEPASISCQASESLVHSNRNTYLHWYLQKPGQSPQLLIYKVSNRFSGVPDRFSGSGSGTDFTLKISRVEAEDVGVYYCSQNTHVPPTFGQGTKVEIERTVAAPSVFIFPPSDEQLKSGTASVVCLLNNFYPREAKVQWKVDNALQSGNSQESVTEQDSKDSTYSLSSTLTLSKADYEKHKVYACEVTHQGLSSPVTKSFNRGEC | 1.37 ratio | 53.9 relative, control = 100 | 73.9 relative, control = 100 |

Other lines, results leading:

| He_3a/2b (IIIa/IIb) [1] | He/Con_2b (IIb binding) [2] | He/Con_3a (IIIa binding) [3] | Binder |
| --- | --- | --- | --- |
| 1.43 ratio | 63.1 relative, control = 100 | 90.3 relative, control = 100 | GpH7-A5/GpH7-B3 variant S324_12R/GpL16-k0 (antibody, human IgG1, kappa, position is EU numbering; also called He Ab) heavy 1: not shown heavy 2: not shown light: DIVMTQSPLSLPVTPGEPASISCQASESLVHSNRNTYLHWYLQKPGQSPQLLIYKVSNRFSGVPDRFSGSGSGTDFTLKISRVEAEDVGVYYCSQNTHVPPTFGQGTKVEIERTVAAPSVFIFPPSDEQLKSGTASVVCLLNNFYPREAKVQWKVDNALQSGNSQESVTEQDSKDSTYSLSSTLTLSKADYEKHKVYACEVTHQGLSSPVTKSFNRGEC |
| 1.69 ratio | 48.4 relative, control = 100 | 81.6 relative, control = 100 | GpH7-A5/GpH7-B3 variant Y300_01G/GpL16-k0 (antibody, human IgG1, kappa, position is EU numbering; also called He Ab) heavy 1: not shown heavy 2: not shown light: DIVMTQSPLSLPVTPGEPASISCQASESLVHSNRNTYLHWYLQKPGQSPQLLIYKVSNRFSGVPDRFSGSGSGTDFTLKISRVEAEDVGVYYCSQNTHVPPTFGQGTKVEIERTVAAPSVFIFPPSDEQLKSGTASVVCLLNNFYPREAKVQWKVDNALQSGNSQESVTEQDSKDSTYSLSSTLTLSKADYEKHKVYACEVTHQGLSSPVTKSFNRGEC |
| 1.24 ratio | 83.5 relative, control = 100 | 104 relative, control = 100 | GpH7-A5/GpH7-B3 variant S324_16H/GpL16-k0 (antibody, human IgG1, kappa, position is EU numbering; also called He Ab) heavy 1: not shown heavy 2: not shown light: DIVMTQSPLSLPVTPGEPASISCQASESLVHSNRNTYLHWYLQKPGQSPQLLIYKVSNRFSGVPDRFSGSGSGTDFTLKISRVEAEDVGVYYCSQNTHVPPTFGQGTKVEIERTVAAPSVFIFPPSDEQLKSGTASVVCLLNNFYPREAKVQWKVDNALQSGNSQESVTEQDSKDSTYSLSSTLTLSKADYEKHKVYACEVTHQGLSSPVTKSFNRGEC |
| 1.43 ratio | 73.6 relative, control = 100 | 105 relative, control = 100 | GpH7-A5/GpH7-B3 variant Y300_08L/GpL16-k0 (antibody, human IgG1, kappa, position is EU numbering; also called He Ab) heavy 1: not shown heavy 2: not shown light: DIVMTQSPLSLPVTPGEPASISCQASESLVHSNRNTYLHWYLQKPGQSPQLLIYKVSNRFSGVPDRFSGSGSGTDFTLKISRVEAEDVGVYYCSQNTHVPPTFGQGTKVEIERTVAAPSVFIFPPSDEQLKSGTASVVCLLNNFYPREAKVQWKVDNALQSGNSQESVTEQDSKDSTYSLSSTLTLSKADYEKHKVYACEVTHQGLSSPVTKSFNRGEC |
| 1.31 ratio | 103 relative, control = 100 | 135 relative, control = 100 | GpH7-A5/GpH7-B3 variant Y296_20W/GpL16-k0 (antibody, human IgG1, kappa, position is EU numbering; also called He Ab) heavy 1: not shown heavy 2: not shown light: DIVMTQSPLSLPVTPGEPASISCQASESLVHSNRNTYLHWYLQKPGQSPQLLIYKVSNRFSGVPDRFSGSGSGTDFTLKISRVEAEDVGVYYCSQNTHVPPTFGQGTKVEIERTVAAPSVFIFPPSDEQLKSGTASVVCLLNNFYPREAKVQWKVDNALQSGNSQESVTEQDSKDSTYSLSSTLTLSKADYEKHKVYACEVTHQGLSSPVTKSFNRGEC |
| 1.21 ratio | 68.6 relative, control = 100 | 83 relative, control = 100 | GpH7-A5/GpH7-B3 variant S324_11K/GpL16-k0 (antibody, human IgG1, kappa, position is EU numbering; also called He Ab) heavy 1: not shown heavy 2: not shown light: DIVMTQSPLSLPVTPGEPASISCQASESLVHSNRNTYLHWYLQKPGQSPQLLIYKVSNRFSGVPDRFSGSGSGTDFTLKISRVEAEDVGVYYCSQNTHVPPTFGQGTKVEIERTVAAPSVFIFPPSDEQLKSGTASVVCLLNNFYPREAKVQWKVDNALQSGNSQESVTEQDSKDSTYSLSSTLTLSKADYEKHKVYACEVTHQGLSSPVTKSFNRGEC |
| 1.39 ratio | 61.4 relative, control = 100 | 85.6 relative, control = 100 | GpH7-A5/GpH7-B3 variant S298_15Y/GpL16-k0 (antibody, human IgG1, kappa, position is EU numbering; also called He Ab) heavy 1: not shown heavy 2: not shown light: DIVMTQSPLSLPVTPGEPASISCQASESLVHSNRNTYLHWYLQKPGQSPQLLIYKVSNRFSGVPDRFSGSGSGTDFTLKISRVEAEDVGVYYCSQNTHVPPTFGQGTKVEIERTVAAPSVFIFPPSDEQLKSGTASVVCLLNNFYPREAKVQWKVDNALQSGNSQESVTEQDSKDSTYSLSSTLTLSKADYEKHKVYACEVTHQGLSSPVTKSFNRGEC |
